# Measurements from the nanobody polyreactivity screen of Harvey et al. (2022).
# Experiment: yeast display, Sf9 membrane polyspecificity reagent, FACS + sequencing; frameworks hold sequencing errors
# Outline: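 After 36–48 hours of galactose induction, yeast (Saccharomyces cerevisiae BJ5465) displaying a synthetic nanobody library were stained at 4 °C for 1 hour with 10% biotinylated, detergent-solubilized Sf9 membrane reagent. Streptavidin microbeads enriched the stained cells before FACS sorting into low and high (top ~1%) gates on anti-HA and streptavidin fluorescence. Each clone's polyreactivity label reflects its gate of origin.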
row,Sequence,polyreactivity (PSR sort gate)
1,QVQLVESGGGLVQAGGSLRLSCAASGSIFFYYTMGWYRQAPGKERELVAAITWSGGSTYYADSVKGRFTISRDNAKNTVYLQMNSLKPEDTAVYYCAAGTRLYYYRLNYWGQGTQVTVSS,high polyreactivity
2,QVQLVESGGGLVQAGGSLRLSCAASGSTFTGYAMGWYRQAPGKERELVAAITRGGSTYYADSVKGRFTISRDNAKNTVFLQMNSLKPEDTAVYYCAAKPTSREPTGPRYYYWGQGTQVTVSS,high polyreactivity
3,QVQLVESGGGLVQAGGSLRLSCAASGNTFIRNVMGWYRQAPGKERELVAGSRTGGSTFYADSVKGRFTISRDNAKNTVYLQMNSLKPEDTAVYYCNADVGDEGNLPYVIRPMDYWGQGTQVTVSS,low polyreactivity
4,QVQLVESGGGLVQAGGSLRLSCAASGLTFRGYAMGWYRQAPGKERELVAAITSSAGRTYYADSVKGRFTISRDNAKNTVYLQMNSLKPEDTAVYYCAAEYASWFGSMNYWGQGTQVTVSS,high polyreactivity
5,QVQLVESGGGLVHAGGSLRLSCAASGRTFHGYAMGWYIQAPGKERELVAAITSSGARTYYADSVKGRFTISRDNAKNTVYLQMNSLKPEDTAVYYCAVNWLRGMDWGQGTQVTVSS,high polyreactivity
6,QVQLVESGGGIVQAGGRLRLSCAASGNTFQDYAMGWYRQAPGKERELVAAINSGGSTNYADSVKGRFTISRDNAKNTVYLQMNSLKPEDTAVYYCAAEPGEGFDYWGQGTQVTVSS,low polyreactivity
7,QVQLVESGGGLVQAGGSLRLSCAASGSIFYSYAMGWYRQAPGKERELVAAISWDASTYYADSVKGRFTISRDNAKNTVDLQMNSLKPEDTAVYYCNKRWFAPPPYSYVRSYDYWGQGTQVTVSS,low polyreactivity
8,QVQLVESGGGLVQAGGSLRLSCAASGITFGNYAMGWYRQAPGKARELVAAITGSGGRTYYADSVKGRFTISRDNANNTVYLQMNRLKPEYTAVYYCNRRQYGRKKQYDYWGQGTQVTVSS,high polyreactivity
9,QGQLVESGGALVQAGGSLRLSCAASGFILPIYAMAWYRQAPGKEREIVAAITWTGGSTYYADSVKGRFTISRDNAKNTVYLQMISLKPEDTAVYYCNVVSDIRLYYRYAYDYWGQGTQVTVSS,high polyreactivity
10,QVQLVESGGGLVQAGGILRLSCAASGNILRFNARGWYRPAPGKEMELVAAISRSGGTTYYADSEKGRFTISRDYAKNTVYLQMNSLKPEDTAVYYCADRYRYGESPGYYWGHGTQVTVSS,high polyreactivity
11,QVQLVESGGGLVQAGGSLRLSCAASGFSFGVYAMGWSRQAPGKERELVAAISTTVGSTYYADSVKGRFTISRDNAKNTVYLQMNSLKPEDTAVYYCAAEYTGYINYYIYEYWGQGTQVTVSS,low polyreactivity
12,QVQLVESGGGLVQAGGSLRLSCAASGSTFKWYAMGWYRQAPGKERELVAAISQSGSRTYYADSVKGRFTISRDNAKNTVYLQMNSLKPEDTAVYYCNARRYIYNYDYWGQGTQVTVSS,high polyreactivity
13,HVQLLESGGGLVQAGGSLRLSCAASGSTFVYYAMGWYRQAPGKERELVAVITRGGRTYYADSVKGRFTISRDNAKTTVYLQMNSVKPEDSEVYYCNKVTPIYHDTVLDYWGQGTQVTVSS,high polyreactivity
14,QVQLVESGGGLVQAGGSLRLSCAASGSTFWYYAMGWYRQAPGKEREMVATIRWRGGSTYYADSVKGRFTISRDNAKNTLYLQMNSLKPEDTAVYYCAADTWAYVGYYYGFDYWGQGTQVTVSS,high polyreactivity
15,QVQLVESGGGLVQAGGSLRLSCAASGSIFHPYAMGWYRQAPGKERELVAAISKSGGNTYYADSVKGRFTISRDNAKNTVYLQMNSLKPEDTAVYYCAALDYWGQGTLVTVSS,low polyreactivity
16,QVQLVESGGGLVQAGGSLRLICAASGFIIRYYAMGWYRQAPGKERELVAVISASGGSTYYADSVKGRFTISRDNAKNTVYLQMNSLKPEDTAVYYCNTKRYFFHRGDMDYWGQGTQVTVSS,high polyreactivity
17,QVQLVESGRGLVQAGGSLRLSCAASGSIFSYYAMGWYIQAPGKERELVAAITVRGGSTYYADSVKGRFTISRDNAKNTVYLQMNSLKPEDTAVYYCAAVPGYTHLWGGPFDYWGQGTQVTVSS,low polyreactivity
18,QVQLVESGGVLVQAGGSLRLSCAASGYIFSLNGMGWYRQAPGKERELVAAITVSGGRTYYADSVKGRFTISRDNAKNTVYLQMNSLKPEDTAVYYCAKRGKYSYWPYYKYDYWGQGTQVTVSS,high polyreactivity
19,QVQLVESGGGLVQAGGSLRLSCAASGSIFDPYAMGWYRQAPGKEREFVAALSWSGGSTYYADSVKGRFTISRDNAKNTVYLQMNSLKPEDTAVYYCATDWGDPYGYDYWGQGTQVTVSS,low polyreactivity
20,QVQLVESGGGLVQAGGSLRLSCAASGFIFWGNTMVWYRQAPGKERELVAAITYSGGSTYYADSVKGRFTISRDNAKNTVYLQMNSLKPEDTAVYYCNKVFVYRGDYWGQGSQVTVSS,high polyreactivity
21,QVQLVESGGGLVHAGGSHRLSCAASGIIVYVNAMGLYRQAPGKERELVSAITFGGDSTYYADSVKGRFTISRDTAKNTVYLQMNSLKPEDTAVYFCATDGDPAYPELEYWGQGTQVTVSS,low polyreactivity
22,QVQLVDSGGGLVQAGGSLRLSCPASGRTFYVYDMGWYRQSPGKERELVAVISSSGSTNYADSVKGRFTISRDNAKNTVYLQMNSLKPEDTAVYYCNRRRWYFFSLDFWGEGTQVTVSS,high polyreactivity

row,Sequence,polyreactivity (PSR sort gate)
1,QVQLVESGGGLVQAGGSLRLSCAASGNIFSAYAMGWYRQAPGKEREFVAAISYSGGNTYYADSVKGRFTISRDNAKNTVYLLMNSLKPEVSAVYYCAARVLNKYYRYGYWGQGTQVTVSS,high polyreactivity
2,QVQLVESVGGLVQAGGSLRLSCAASGSTFAYNDMGWYRQAPGKERELVPDIRSGGNTNYADSVKGRFTISRDNAKNTVYLQMNSLKPEDTAVYYCATDGYRIDVYHPDYRYDYWGQGTQVTVSS,low polyreactivity
3,QVQLVESGGGLVQAGGSLRLSCAASGRIFSAYAMGWYRQAPGKERELVAVISRRGGRTYYADSVKGRFTISRDNAKNTVYLQMNSLKPEDTAVYYCAALGRRTRLYYWGQGTQVTVSS,high polyreactivity
4,QVQLVESGGGLVHAGGSLRLSCSASGIIFYRYAMGWYRQAPGKERELVAAITWSGVSTSYADSVKGRFTISRDNAKNTVYLKMNSLKPEDTAVYYCNIDPGTLFGDMDSWGQGNQVTVSS,low polyreactivity
5,QVQLVESGGGLVQAGGSLRLSCAASGFIFYFYAMGWYRQAPWKERELVAAISSGGSTNYADSVKGRFTISRDNAKNTVYLQMISLKPEDTAVYYCARKTSSYFGHYYYWGQGTQVTVSS,low polyreactivity
6,QVQLVESGGGLVQAGGSLRLRCAATGSTFVYNAMGWYRPAPGKVRELVARITRSGGSTYYADSVKGRFTISRDNAKNTVYLQMKSLKPEDTAVYYCAKEREGHSVRIGPRYNYWGQGSQVTVSS,low polyreactivity
7,QVQLVESGGGLVQAGGSLRLSCAASGRTIRYYAMGWYRQAPGKERELVAAITWSVGSTYYADSVKGRFTISRDNAKNTVYLQMNSLKPEDTAVYYCAARLYQLYYWGQGTQVTVSS,high polyreactivity
8,QVQLVESGGGLVQAGGSIRLICAASGRTFSRYAMGWYRQAPGKERELVAAITFRFGRTYYADSVKGRFTISRDNAKNTVYLQMNSMKPEDTSVYYCAAETKYSGAYPYDYWGQGTQVPVSS,high polyreactivity
9,QVKLVESGGGLVQAGGSLRLSCAASGRIFNWYAMGWYRQAPGKERELVAAITSGGSTNYADSVKGRFTISRDNAKNTVYLQMNSLKPEDTAVYFCNARGRFRGYRYYYWGQGTQVTVSS,high polyreactivity
10,QVQLVESGGGLVQAGGSLRLSCAASGRTFFSYAMGWYRQAPGKERELVAAISWSGGTTYYADSVKGRFTISRDNAKNTVYLQMNSLKPEDTAVYYCAAYVYQEGYRYYYWGQGTQVTVSS,high polyreactivity
11,QVQLVESGGGLVQAGGSLRLSCAASGRTFGYNAMGWYRQAPGKERELVAAITRGGSTYYADSVKGRFTISRDNAKNTVYLQMNSLKPEDTAVYYCAAKSYWSGYFVGYEYWGQGTQVTVSS,high polyreactivity
12,QDQLVESGGGLVQAGGSLRLSCAASVSTFYVYAMGWYRQAPGKERELVAAITRGGSTYYADSVKGRFTISRDNAKNTVYLQMNSLKPEDTAGYYCAADYGSRWGYDYCGQGTQVTVSS,low polyreactivity
13,QVQLVESGGGLVQAGGSVRLSCAASGSTFLYNAMGWYRQAPGKEREVVAGIRRSGGSTYYADSVKGRFTISRANAKNTVYLQMNSLKPEDTAVYYCAVVPAMYRYRVVTYAYDYWGQGTQVNVSS,low polyreactivity
14,QVQLVESGGGLVQAGGSLRLSCAASGRILKYYAMGWYRQAPGKERELVAAITSDVNTYYADSVKGRFTISRDNAKNTVYLQMNSLKPEDTAVYYCNADADDYRDYQDYDYWGQGTQVTVSS,low polyreactivity
15,QVQLVESGGGLVQAGGSLRLSSAASGRIFWAYLMGRYRQAPGKERELVATIRWRGGSTYYADSVKGRFTISRDNAKNTFYLQMIRLKLEDTAVYYCNADRYSRISPTRYDYWGQGTQVTVSS,high polyreactivity
16,QVQLVESGGGLVQAGGSLRLSCAASGRIFYTNAMGWSRQAPGKERELVAVISWGGDTTYYADSVKGRFTISRDNAKNTVYLQLNSLKPEDTAVYYCNADWGPTYEIYDSWGQGTQVTVSS,low polyreactivity
17,QVQLVESGGGLVQAGGSLRLSCAASGRIFYSNTMGWYRQAPGKERELVAAITWRGGRTHYADSVKGRLTISRDNAKNPVYLQMNSLTPEDTAVYYCAARYIPIQYPSYRTWGGYSWGQGTQVTVSS,high polyreactivity
18,QVQLVESGGGLVQAGGSLRLSCAASGFNFAIYAMGWYRQAPGKERELVAAISSSGGSTYYADSVKGRFTISRDNAKNTVYLQMNSLKPEDTAVYYCNADWSLYWLDYWGQGTQVTVSS,high polyreactivity
19,QVQLEESGGGLVQAGGSLRLSCAASGLILRWNAMGWYRQAPGKERELVATINRGGSTNYADSVKGRFTISRDNAKNTVYLQMNSLKPEDTAVYYCYKARTSQYHHTYWRTYGYWGPGTQVTVSS,low polyreactivity
20,QVQLVESGGGLVQAGGSLRLSCAASGSIFSTYAMGWYRQAPGKERELVAAISKSGGSTYYADSVKGRFTISRDNAKNTVYLQMNSLKPEDTAVYYCAATRWYGYKRWGYDYWGQGTQVTVSS,high polyreactivity
21,QVQLVESGGGLVQAGGSLRLSCAASGSTLGVNAMGRYRQAPGKEREFVAAITGRGGNSYYADSVKGRFTISRDNAKNTVYLKMNSLKPEDTAVYYCAAERQPYRTSSYNYWGQGSQVTVSS,high polyreactivity
